From the RNAGym collection of RNA variant scans (doi:10.1073/pnas.2313332121)

B1: TPR t1 (parent)
chain: GACCAAUCUGCCCUCAGAGCUCGAGAACAUCUUCGGAUGCAGAGGAGGCAGGCUUCGGUGGCGCGAUAGCGCCAACGUCCUCAACCUCCAAUGCAUCCCACCACAUGAUGAUGCCUGAAGAGCCUUGGUUUUUUG

Variants of: B1
Test: polymerase ribozyme fitness, log enrichment relative to wild type (log ratio); higher = more active; in vitro selection for triplet polymerase activity
Summary of the method: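 A single round of triplicate in vitro selection, including frozen incubation at −7 °C, was applied to PCR-built, transcribed mutant libraries of each subunit of a heterodimeric triplet polymerase ribozyme. Illumina sequencing of input and output libraries retained genotypes with ≥10 input reads and ≥1 read per output. Fitness is the base-2 logarithm of genotype enrichment divided by wild-type enrichment, from inverse-variance-weighted replicate averages.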

Row | Variant | polymerase ribozyme fitness (log ratio)
1 | GACCAAUCUGCCCUCAGAGCUCGAGAACAUCUUCGGAUGCAGAAGAGGCAGGUUUCGGUGGCGCGAUAGCGCCAACGUCCUCAACCUCCAAUGCAUCCCACCACAUGAUGAUGCCUGAAGAGCCGUGGUUUUUUG [G44A C53U U125G] | -2.16
2 | GACCAAUCUGCCCUCAGAGCUCGAGAACAUCUUCGGAUGCAGAAGAGGCAGGCUUUGGUGGCGCGAUAGCGCCAACGUCCUCACCCUCCAAUGCAUCCCACCACAUGAUGAUGCCUGAACAGCCUUGGUUUUUUG [G44A C56U A84C G120C] | -0.295
3 | GACCAAUCUGCCCUCAGAGCUCGAGAACAUCUUCGGAUGCAGAAGAGGCAGGCUUCGGUGGAGCGAUAGCGCCAACGUCCUCAACCUUUAAUGCAUCCCACCACAUGAUGAUGCCUGAAGAGCCUUGCGUUUUUG [G44A C62A C88U C89U G128C U129G] | -2.95
4 | GACCAAUCUGCCCUCAGAGCUCGAGAACAUCUUCGGAUGCAGAAGAGGCAGGCUUUGGUGGCGCGAUAGCGCCAACGUCCUCAACCUCCAAUGCAUCCCACCACAUGAUGAUGCCUGAAGAGUCUUGGUUUUUUU [G44A C56U C123U G135U] | -0.56
5 | GACCAAUCUGCCCUCAGAGCUCGAGAACAUCUUCGGAUGCAGAAGAGGCAGGCUUCGGUGGCGCGAUAGCGCCAACGUCCUCAACCUCCAAUGCAUCCCACCACAUGAUGUUGCCUGAAGAGCCUUGGUUUAUUG [G44A A111U U132A] | -3.18
6 | GACCAAUCUGCCCUCAGAGCUCGAGAACAUCUUCGGAUGCAGAAGAGGCAGGCUUCGGUGGCGCGAUAGCGCCAACGUCCUCAACCUCCAAUGCCUCCCACCACAUGAUGAUGCCUGAAGAGGCUUGGUUUAUUG [G44A A95C C123G U132A] | -1.17
7 | GACCAAUCUGCCCUCAGAGCUCGAGAACAUCUUCGGAUGCAGAAGAGGCAGGCUUCGGUGGCGCGAUAGCGCCAACGUCCUCAACCUCCAAUGCAUCCCACCACAUGAUGAUGCCUGUAGAGCCUUGGUUUUUUG [G44A A118U] | -0.0596
8 | GACCAAUCUGCCCUCAGAGCUCGAGAACAUCUUCGGAUGCAGAAGAGGCAGGCUUCGGUGGCGCGAUAGCGCCAACGUCCUCAACCUCCAAUGCAUCCCACCACAUGAUGAUGCCUGGAGAGCCUUGGUUUUUUG [G44A A118G] | -1.56
9 | GACCAAUCUGCCCUCAGAGCUCGAGAACAUCUUCGGAUGCAGAAGAGGUAGGCGUCGGAGACGCGAUAGCGCCAACGUCCUCAACCUCCAAUGCAUCCCACCACAUGAUGAUGCCUGAGGAGCCUUGGUUUUUUG [G44A C49U U54G U59A G61A A119G] | -7.24
10 | GACCAAUCUGCCCUCAGAGCUCGAGAACAUCUUCGGAUGCAGAAGAGGUAGGCUUCGGUGGCGCGAUAGCGCCAACGUCCUCAACCUCCAAUGCAUCCCACCACAUGAUGAUGCCUCAAGAGCCUUGGUUUUGUG [G44A C49U G117C U133G] | -5.23
11 | GACCAAUCUGCCCUCAGAGCUCGAGAACAUCUUCGGAUGCAGAAGAGGCAGGCUUGGGUGGCGCGAUAGCGCCAAAGUCCUCAACAUCCAAUGCAUCCCACCACAUGAUGAUGCCUGAAGAGCCUUGGUUUUUUG [G44A C56G C76A C86A] | -2.93
12 | GACCAAUCUGCCCUCAGAGCUCGAGAACAUCUUCGGAUGCAGAAGAGGCAGGAUUCGGUGGCGCGAUAGCGCCAACGUCCUCAACCUCCAAUGCAUCCCACCACAUGAUGAUGCCUGAAGAGCCUUGGUUUUUUG [G44A C53A] | 0.047
13 | GACCAAUCUGCCCUCAGAGCUCGAGAACAUCUUCGGAUGCAGAAGAGGCAGGCUUCGGUGGCGCGAUAGCGCCAACGUCCUCAUCCUCCAAUGCAUCCCACCACAUGAUGAUGCCUGAAGAGCCUUGGUUUUUUG [G44A A84U] | -0.594
14 | GACCAAUCUGCCCUCAGAGCUCGAGAACAUCUUCGGAUGCAGAAGAGGCAGGCUUCGGUGGCGUGAUAGCGCCAACGUCCUCAACCUCCAAUGCAUCCCACCACAUGAUGAUGCCUGAAGAGCCUUGCUUUCUUG [G44A C64U G128C U132C] | -2.96
15 | GACCAAUCUGCCCUCAGAGCUCGAGAACAUCUUCGGAUGCAGAAGAGGCAGGCUUCGGUGGCGCGAUAGCGCCAACGUCCUCAACCUCCUAUGCAUCCCACCACAUGAUGAUGCCUGAAGAGCCUUGGUUUUUUG [G44A A90U] | -1.45
16 | GACCAAUCUGCCCUCAGAGCUCGAGAACAUCUUCGGAUGCAGAAGAGGCAGGUUUCGGUGGCGCGAUAGCGCCAACGUCCUUAACCUCCAAUGCAUCCCACCACAUGAUGAUGCCUAAAGAGCAUUGGUUUUUUG [G44A C53U C82U G117A C124A] | -1.14
17 | GACCAAUCUGCCCUCAGAGCUCGAGAACAUCUUCGGAUGCAGAAGAGGCAGGCUUCGGUGGCGAGAUAGCGCCAAAGUCCUCAACCUCCAAUGCAUCCCACCACAUGAUGAUGCCUGAAGAGCCUUGGUUUUUUG [G44A C64A C76A] | -6.8
18 | GACCAAUCUGCCCUCAGAGCUCGAGAACAUCUUCGGAUGCAGAAGAGGCAGGCUUCGGUGGCGCGAUAGCGCCAACGUCCUCAACCUCCAAUGCAUCCCACCGCAUGAUGAUGCCUGAAGAGCCUUGGUUUUUUG [G44A A103G] | -6.14
19 | GACCAAUCUGCCCUCAGAGCUCGAGAACAUCUUCGGAUGCAGAAGAGGCAGGCUUCGGUGGCGCGAUAGCGCCAACGUCCUCAACCUCCAAUGCAUCCCACCUCAUGAUGAUGCCUGAAGAGCCUUGGUUUUUUG [G44A A103U] | -5.44
20 | GACCAAUCUGCCCUCAGAGCUCGAGAACAUCUUCGGAUGCAGAAGAGGCAGGCUUCGGUGGCGCGAUAGCGCCAACGUCCUCAACCUCCAAUGCAUCCCACCACAUGAUGUUGCCUGAAGAGCCUUGGUUUUUUG [G44A A111U] | -4.79
21 | GACCAAUCUGCCCUCAGAGCUCGAGAACAUCUUCGGAUGCAGAAGAGGCAGGCUUCGGUGGCGCGAUAGCGCCAACGUCCUCAACCUCCAAUGCCUCCCACCACAUGAUGAUGCCUGAAGAGCCUUGGUUUUUUG [G44A A95C] | -1.35
